Results as given in the supplement of paper PMC10567573.

B1: WDFY1 (parent)
chain: LLIPKEDGVITASEDRTIRVWLKR
B2: SLC2A12 (parent)
chain: LTLVFFVQITGQPNILFYASTVLK

Variants of: B1
Experiment: protein stability index of a GFP-peptide fusion (GPS, HEK-293T) (PSI 1-6); higher = more stable
Conditions: c terminus: a fixed tail appended
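Note: lentivirally expressed fusions sorted by FACS into six bins by GFP to DsRed ratio, PSI derived from sequencing read proportions per bin multiplied by bin number.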

Variant	protein stability index
L22F	2.15
L22M	3.01
L22S	2.79
L22E	3.61
L22Y	2.83
L22I	2.56
L22K	2.91
L22C	2.48
L22N	2.77
L22H	2.75
L22T	2.54
L22P	4.22
L22R	3.11
L22V	2.17
W21S	2.8
W21E	3.37
W21H	3.17
W21A	3.07
W21M	2.06
W21Q	4.25
W21R	2.77
W21D	3.87
W21L	2.78
W21N	3.33
W21V	3.07
W21T	2.46

Variant	protein stability index
W21F	3.61
W21C	3.44
W21I	3.04
K23P	2.15
K23N	2.63
K23T	2.62
K23F	3.36
K23D	2.2
K23W	2.13
K23E	2.9
K23Q	1.4
K23R	2.74
K23C	2.24
K23I	2.1
K23L	2.44
K23M	1.76
K23H	1.7
K23S	2.1
K23V	2.28
K23G	1.83
K23A	1.79
V20R	1.64
V20K	2.41
V20D	2.52
V20C	2.39
V20W	1.72

Variant	protein stability index
V20P	2.44
V20E	1.73
V20M	1.66
V20H	2.1
V20S	2.15
V20L	2.29
V20Y	1.87
V20T	2.95
V20I	2.64
I18R	3.55
I18S	2.94
I18V	2.61
I18P	3.15
I18T	2.89
I18Q	3.97
I18M	1.76
I18Y	2.04
R24D	3.09
R24V	1.69
R24M	1.53
R24F	2.44
R24L	1.83
R24P	2.07
R24Y	2.07
R24S	2.18
R24A	1.84

Variant	protein stability index
R24G	3.37
R24I	3.32
R24K	2.08
R24N	2.34
R24H	2.03
R24E	2.48
R24Q	2.71
R24W	2.01
R19A	2.03
R19P	2.45
R19G	1.8
R19N	1.83
R19D	2.28
R19K	2.09
R19E	1.92
R19Y	2.66
R19S	1.91
R19M	2.44
R19V	2.21
R19C	2.5
R19W	1.71
R19T	1.7
R19L	1.31

Variants of: B2
Experiment: as above
Conditions: c terminus: a fixed tail appended

Variant	protein stability index
F6L	2.26
F6V	3.64
F6D	2.69
F6W	2.85
F6Q	4.18
F6T	2.35
F6A	2.9
F6G	3.11
F6H	3.02
I9F	2.63
I9S	3.01
I9L	5.05
I9N	3.06
I9E	4.04
I9R	3.42
I9A	2.57
I9W	3.12
I9H	4.79
I9T	3.18
I9M	3.4
I9G	2.45
I9Q	1.99
V4G	4
V4D	3.68

Variant	protein stability index
V4M	2.09
V4H	3.15
V4N	2.73
V4K	2.64
V4W	2.98
V4S	2.54
V4Y	2.54
V4L	2.65
V4E	1.44
V4Q	3.56
V4I	2.99
V4C	3.38
V4P	2.67
Y18M	2.05
Y18P	4.25
Y18A	2.49
Y18F	3.63
Y18T	2.31
Y18D	2.93
Y18N	1.59
Y18K	2.6
Y18S	3.38
Y18E	2.04
Y18I	2.47

Variant	protein stability index
Y18L	3.04
L1F	4.63
L1R	1.8
L1K	2.96
L1S	3.18
L1I	2.33
L1V	2.75
L1M	3.03
L1P	2.54
L1H	2.7
L1C	2.29
L1T	3.79
L1N	1.69
L1D	2.23
L1W	2.65
L1Y	2.85
L1A	2.8
L1E	2.27
L1G	4.08
L16D	2.58
L16T	3.51
L16P	4.12
L16C	2.98
L16G	2.02

Variant	protein stability index
L16A	4.05
L16H	1.6
L16R	3.61
L16M	3.19
Q12I	2.73
Q12Y	2.33
Q12K	3.74
Q12S	2.21
Q12L	3.8
Q12D	2.94
Q12M	3.94
Q12C	2.83
Q12N	1.94
Q12V	2.91
Q12R	2.64
Q12E	2.25
Q12T	3.22
N14L	3.78
N14G	3.5
N14S	2.14
N14F	3.6
N14M	2.01
N14R	3.96
N14I	4.38

Variant	protein stability index
N14E	1.76
N14P	2.34
N14Q	3.83
N14D	3.93
N14H	2.96
N14Y	1.5
N14C	1.99
N14A	2.73
N14T	3.06
A19R	2.55
A19V	2.66
A19M	2.4
A19K	2.5
A19T	2.42
A19L	3.37
V7Y	3.38
V7M	4.19
V7D	3.27
V7S	2.3
V7A	2.03
V7H	3.64
V7W	2.61
V7K	1.59
I15S	4.88

Variant	protein stability index
I15Q	2.46
I15F	3.04
I15C	2.48
I15W	2.63
I15K	2.67
I15A	2.99
I15Y	3.83
I15L	4.71
I15E	2.91
Q8I	3.94
Q8C	3.19
Q8T	3.53
Q8H	3.26
Q8E	3.4
Q8S	2.51
Q8K	3.48
Q8L	2.46
Q8F	3.87
Q8N	3.92
Q8G	2.93
Q8A	4.06
Q8P	2.51
S20A	2.52
L3V	4.79

Variant	protein stability index
L3A	3.64
L3S	3.34
L3Q	3.25
L3I	3.43
L3D	2.9
L3H	2.75
L3P	3.17
L3W	4.1
L3R	2.29
L3G	2.17
L3T	4.46
L3N	2.42
L3E	4.85
L3M	3.15
L3Y	2.54
G11T	2.29
G11M	3.38
G11A	2.87
G11Y	3.04
G11N	3.96
G11L	2.33
G11D	3.42
G11S	2.87
G11F	2.92

Variant	protein stability index
G11C	2.58
G11Q	4.06
G11P	3.28
G11V	2.45
F5V	2.47
F5H	1.93
F5T	1.96
F5I	2.45
F5N	2.65
F5P	3.32
F5Y	2.52
F5E	2.7
F5R	3.67
F5W	3.59
F5Q	2.13
F5S	1.66
P13H	3.43
P13K	2.67
P13Q	2.05
P13G	5.6
P13V	3.35
P13I	2.72
P13S	3.1
P13Y	2.2

Variant	protein stability index
P13R	3.44
P13A	3.85
P13E	3.73
P13T	2.59
T10F	2.92
T10D	2.75
T10Q	1.31
T10H	2.17
T10E	2.11
T10A	3.42
T10S	1.67
T10Y	3.46
T10P	5.16
T10N	1.88
T10I	3.61
T10K	3.77
F17H	3.19
F17S	2.69
F17W	3
F17Q	3.16
F17N	2.66
F17A	1.86
F17K	3.38
F17T	3.28

Variant	protein stability index
F17Y	2.63
F17M	2.52
T2K	3.54
T2D	2.45
T2L	3.88
T2S	3.26
T2Y	3.04
T2A	2.61
T2N	3.71
T2W	2.96
T2G	2.15
T2I	4.67
T2F	2.44
T2C	2.24
T2P	2.78
T2E	1.69
T2M	3.56
